Reference: patent US20210214434A1 (LABORATOIRE FRAN AIS DU FRACTIONNEMENT ET DES …, published 2021)
Residue numbers refer to the chain shown, from its start. In names and notes the source's numbering stands.

Key:
[1] = target: T1, human CD64 receptor expressed by Jurkat cells (Jurkat-CD64) (human, UniProt P12314 16-374); assay: cell-based or functional assay
[2] = target: T2, CD32b (UniProt P31994 43-310, limits assumed); assay: competition assay, protocol and competitor for CD32b not described
T2 construct: probably on transfected cells as for CD32a
T2 sequence (looked up): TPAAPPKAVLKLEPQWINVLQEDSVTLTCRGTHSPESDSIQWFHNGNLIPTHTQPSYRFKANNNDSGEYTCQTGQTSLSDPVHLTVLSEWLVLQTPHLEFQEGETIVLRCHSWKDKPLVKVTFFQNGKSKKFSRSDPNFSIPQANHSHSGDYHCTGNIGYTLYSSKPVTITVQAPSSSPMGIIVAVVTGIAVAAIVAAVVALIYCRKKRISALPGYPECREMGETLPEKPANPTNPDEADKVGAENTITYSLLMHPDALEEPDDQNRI

[3] = target: T3, HisTag hCD16aV receptor (R&D System) (human, UniProt P08637 17-208); assay: BLI (Octet), HisTag hCD16aV on anti-Penta-HIS biosensors, 1/1 model; SD 18.1
T3 construct: Captured on anti-Penta-HIS biosensors; also called human FcγRIIIa-V; FcγRIIIa (CD16a); not shown: HisTag
T3 sequence (P08637 17-208 F176V limits assumed): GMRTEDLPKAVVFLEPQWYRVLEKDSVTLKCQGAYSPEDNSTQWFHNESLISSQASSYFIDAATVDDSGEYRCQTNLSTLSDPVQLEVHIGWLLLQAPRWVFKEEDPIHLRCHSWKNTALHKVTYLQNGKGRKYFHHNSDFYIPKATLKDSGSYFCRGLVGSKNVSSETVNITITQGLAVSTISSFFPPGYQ
Procedure: (§1) The molecules were tested at concentrations of 1000, 500, 250, 125, 62.5, 31, […] and 0 nM in kinetic buffer.
(§2) The association and dissociation curves (first 5 s) are used to calculate the kinetic constants of association (kon) and dissociation (koff) using a 1/1 association model. KD (nM) is then calculated […].

[4] = target: T4, human CD32aH receptor on transfected HEK cells (HEK-CD32) (human, UniProt P12318 34-317); assay: flow cytometry competition on HEK-CD32 cells, displacement of Rituxan-A488 (30 µg/ml)
T4 construct: whole, on cells; also called hCD32aH; FcγRIIa (CD32a)
T4 sequence (looked up): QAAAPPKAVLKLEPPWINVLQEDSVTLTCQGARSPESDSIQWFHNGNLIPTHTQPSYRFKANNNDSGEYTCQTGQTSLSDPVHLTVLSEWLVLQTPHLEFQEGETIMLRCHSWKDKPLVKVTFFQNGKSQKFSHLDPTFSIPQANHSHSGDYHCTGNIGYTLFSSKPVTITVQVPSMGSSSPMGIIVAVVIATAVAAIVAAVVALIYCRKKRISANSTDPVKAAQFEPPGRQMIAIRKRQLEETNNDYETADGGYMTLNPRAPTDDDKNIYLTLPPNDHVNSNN
Procedure: (§3) The cells are then washed by adding 100 μl of PBS at pH 6 and centrifuged at 1700 rpm for 3 minutes at 4° C. The supernatant is then removed and 300 μl of cold PBS is added at pH 6.

[5] = target: T5, human CD32aR receptor on transfected HEK cells (HEK-CD32) (human, UniProt P12318 34-317); assay: as above
T5 construct: whole, on cells; also called hCD32aR; FcγRIIa (CD32a)
T5 sequence (looked up): T4 sequence (looked up) with H134R
Procedure: as §3

[6] = target: T1, human CD64 receptor expressed by Jurkat …; assay: flow cytometry competition on Jurkat-CD64 cells, displacement of Rituxan-A488 (25 µg/ml)
[7] = target: T6, human CD16aH receptor on transfected Jurkat cells (Jurkat-CD16aH) (human, UniProt P08637 17-254); assay: flow cytometry competition on Jurkat-CD16aH cells, displacement of mAb 3G8-PE (0.5 µg/ml)
T6 construct: whole, on cells; also called hCD16aH; CD16a-F
T6 sequence (P08637 17-254): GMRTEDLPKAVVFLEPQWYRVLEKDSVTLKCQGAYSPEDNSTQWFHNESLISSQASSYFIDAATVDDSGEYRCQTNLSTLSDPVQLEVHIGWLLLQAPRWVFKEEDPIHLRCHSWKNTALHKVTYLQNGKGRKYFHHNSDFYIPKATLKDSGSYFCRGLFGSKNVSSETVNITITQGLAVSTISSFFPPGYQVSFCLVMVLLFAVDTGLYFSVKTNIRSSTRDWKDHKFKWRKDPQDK
Procedure: The Jurkat-CD16aH cells are seeded in a 96-well plate (V bottom) at a concentration of 2.10⁵ cells per well.
The cells are then washed by adding […] of PBS at pH 6 and centrifuged at 1700 rpm for 3 minutes at 4° C. The supernatant is then removed and 300 μl of cold PBS is added at pH 6.

[8] = target: T7, human FcRn receptor expressed by Jurkat cells (Jurkat-FcRn) (human, UniProt P55899 24-365; P61769 21-119); assay: flow cytometry competition on Jurkat-FcRn cells, displacement of Rituxan-A488 (25 µg/ml), pH 6
T7 construct: whole, on cells; also called hFcRn
T7 sequence (P55899 24-365, chain 1 of 2): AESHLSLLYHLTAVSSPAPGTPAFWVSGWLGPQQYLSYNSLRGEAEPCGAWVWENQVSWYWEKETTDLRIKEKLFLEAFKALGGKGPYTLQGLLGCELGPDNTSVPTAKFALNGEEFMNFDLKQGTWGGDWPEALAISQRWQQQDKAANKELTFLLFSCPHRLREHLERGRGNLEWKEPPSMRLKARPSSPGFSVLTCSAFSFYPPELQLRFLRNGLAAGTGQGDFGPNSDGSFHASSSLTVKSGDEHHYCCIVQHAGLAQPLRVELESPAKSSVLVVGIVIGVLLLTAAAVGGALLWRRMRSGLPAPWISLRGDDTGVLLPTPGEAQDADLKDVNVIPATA
T7 sequence (P61769 21-119, chain 2 of 2): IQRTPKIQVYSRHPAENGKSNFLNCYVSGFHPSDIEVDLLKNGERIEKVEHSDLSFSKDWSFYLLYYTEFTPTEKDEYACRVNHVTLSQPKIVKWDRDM
Procedure: The Jurkat-FcRn cells are seeded in a 96-well plate (V bottom) at a concentration of 2.10⁵ cells per well.
as §3

[9] = target: complement proteins, in particular C1q (complement of the young rabbit serum used in the CDC test) (rabbit); assay: cell-based or functional assay
[10] = target: T3, HisTag hCD16aV receptor (R&D System); assay: BLI (Octet), HisTag hCD16aV on anti-Penta-HIS biosensors, 1/1 model; SD 14.1
[11] = target: T8, HisTag hCD32aH receptor (PX therapeutics) (human, UniProt P12318 34-217, limits assumed); assay: BLI (Octet), HisTag hCD32aH on anti-Penta-HIS biosensors, 1/1 model; SD 29.7
T8 construct: Captured on anti-Penta-HIS biosensors; also called FcγRIIa (CD32a); not shown: HisTag
T8 sequence (looked up): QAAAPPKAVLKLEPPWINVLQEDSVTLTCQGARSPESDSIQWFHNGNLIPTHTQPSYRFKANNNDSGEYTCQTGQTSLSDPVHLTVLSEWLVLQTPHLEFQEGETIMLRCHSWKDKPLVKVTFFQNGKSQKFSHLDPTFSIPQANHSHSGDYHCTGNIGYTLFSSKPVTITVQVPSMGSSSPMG

[12] = target: biotinylated human FcRn receptor (hFcRn), immobilized on Streptavidin Biosensors (human, UniProt P55899 24-297; P61769 21-119, limits assumed, biotinylated (site not stated)); assay: BLI (Octet), biotinylated hFcRn on streptavidin biosensors, pH 6, 1/1 model; SD 0
Chain of biotinylated human FcRn receptor (hFcRn), immobilized on Streptavidin Biosensors (P55899 24-297 limits assumed, chain 1 of 2): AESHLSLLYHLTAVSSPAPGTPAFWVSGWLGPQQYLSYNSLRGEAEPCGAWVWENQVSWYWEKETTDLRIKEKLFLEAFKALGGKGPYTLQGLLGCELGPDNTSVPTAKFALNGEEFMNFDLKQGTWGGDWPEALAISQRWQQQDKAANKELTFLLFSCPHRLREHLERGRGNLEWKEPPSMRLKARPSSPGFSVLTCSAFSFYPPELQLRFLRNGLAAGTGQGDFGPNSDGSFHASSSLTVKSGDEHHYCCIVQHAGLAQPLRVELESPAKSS
Chain of biotinylated human FcRn receptor (hFcRn), immobilized on Streptavidin Biosensors (P61769 21-119 limits assumed, chain 2 of 2): as the sequence (P61769 21-119, chain 2 of 2) above
Procedure: The association and dissociation curves (first 10 s) are used to calculate the kinetic constants of association (kon) and dissociation (koff) using a 1/1 association model. KD (nM) is then calculated […].

[13] = target: T3, HisTag hCD16aV receptor (R&D System); assay: BLI (Octet), HisTag hCD16aV on anti-Penta-HIS biosensors, 1/1 model; SD 10.7
Procedure: as §1, §2

[14] = target: T3, HisTag hCD16aV receptor (R&D System); assay: BLI (Octet), HisTag hCD16aV on anti-Penta-HIS biosensors, 1/1 model; SD 7.7
Procedure: as §1, §2

T1 sequence (P12314 16-374): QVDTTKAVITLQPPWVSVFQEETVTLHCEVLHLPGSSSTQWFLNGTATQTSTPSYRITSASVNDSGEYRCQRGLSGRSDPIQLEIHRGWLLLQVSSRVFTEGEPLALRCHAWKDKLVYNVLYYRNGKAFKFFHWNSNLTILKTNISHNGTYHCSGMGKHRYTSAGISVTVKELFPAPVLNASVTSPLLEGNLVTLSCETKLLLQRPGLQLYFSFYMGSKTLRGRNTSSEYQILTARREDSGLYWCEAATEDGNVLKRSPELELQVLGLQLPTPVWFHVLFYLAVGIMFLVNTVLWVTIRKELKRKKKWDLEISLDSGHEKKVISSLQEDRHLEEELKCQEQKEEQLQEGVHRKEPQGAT

B1: A3A-184AY_CHO (K334N/P352S/A378V/V397M/N434Y), Fc variant produced in CHO cells (other)
chain: DKTHTCPPCPAPELLGGPSVFLFPPKPKDTLMISRTPEVTCVVVDVSHEDPEVKFNWYVDGVEVHNAKTKPREEQYNSTYRVVSVLTVLHQDWLNGKEYKCKVSNKALPAPIENTISKAKGQPREPQVYTLSPSRDELTKNQVSLTCLVKGFYPSDIVVEWESNGQPENNYKTTPPMLDSDGSFFLYSKLTVDKSRWQQGNVFSCSVMHEALHYHYTQKSLSLSPGK
notes: also called Fc A3A-184AY CHO
Q: Which results are given for B1?
A: Inhibition of the secretion of IL-2 of the Jurkat cells transfected with CD64 (IC 25%, nM) [1]: 448 nM; Inhibition of the secretion of IL-2 of the Jurkat cells transfected with CD64 (IC 50%, nM) [1]: 600 nM; IC50 [2]: 57 nM; Kd [3]: 80.3 nM; IC50 [4]: 135 nM; IC50 [5]: 176 nM; IC50 [6]: 84 nM; IC50 [7]: 262 nM; IC50 [8]: 13 nM

B2: Fc variant A3A-184AY (HEK) (K334N/P352S/A378V/V397M/N434Y), produced in HEK293 cells (other)
chain: B1 chain
notes: also called Fc A3A 184AY (HEK); rFc A3A-184AY
Q: B2 was tested. Which “IC50 (read off the curve)” value [9] did it give?
A: Its value is ~200 nM.

Q: What about the Kd [10] of the same binder?
A: Its Kd is 132 nM.

Q: What about the Kd [11] of the same binder?
A: The Kd was 313 nM.

Q: What about the Kd [12] of the same binder?
A: The Kd was 7.8 nM.

B3: Fc MST-HN fragment containing the mutations M252Y/S254T/T256E/H433K/N434F, produced in HEK-293 cells (other, UniProt P01857-1 104-330, looked up, name in EU numbering)
chain: B1 chain with M32Y, S34T, T36E, N114K, S132P, V158A, M177V, H213K, Y214F
Q: How did the “Inhibition of the secretion of IL-2 of the Jurkat cells transfected with CD64 (IC 25%, nM)” value [1] turn out when B3 was run?
A: Its value is 1460 nM.

Q: And the “Inhibition of the secretion of IL-2 of the Jurkat cells transfected with CD64 (IC 50%, nM)” value [1]?
A: The value was < 1950 nM.

Q: What about the IC50 [6] of the same binder?
A: Its IC50 is 494 nM.

Q: What about the IC50 [8] of the same binder?
A: Its IC50 is 14 nM.

B4: A3A-184AY_TGg, Fc variant A3A-184AY produced in the transgenic goat (other)
chain: B1 chain
Q: Which IC50 [2] does the source give for B4 here?
A: The IC50 was 59 nM.

Q: What about the Kd [13] of the same binder?
A: The Kd was 51.2 nM.

Q: And the IC50 [4]?
A: The IC50 was 170 nM.

Q: What about the IC50 [6] of the same binder?
A: Its IC50 is 87 nM.

Q: And the IC50 [8]?
A: Its IC50 is 12 nM.

B5: A3A-184EY_CHO (Y296W/K334N/P352S/A378V/V397M/N434Y), Fc variant produced in CHO cells (other)
chain: B1 chain with Y76W
notes: probably a misprint; also called Fc A3A-184EY CHO
Q: For B5, which “Inhibition of the secretion of IL-2 of the Jurkat cells transfected with CD64 (IC 25%, nM)” value [1] is on record?
A: Its value is 442 nM.

Q: And the “Inhibition of the secretion of IL-2 of the Jurkat cells transfected with CD64 (IC 50%, nM)” value [1]?
A: Its value is 600 nM.

Q: What about the IC50 [2] of the same binder?
A: Its IC50 is 55 nM.

Q: And the Kd [14]?
A: Its Kd is 59.3 nM.

Q: What about the IC50 [4] of the same binder?
A: The IC50 was 147 nM.

Q: What about the IC50 [5] of the same binder?
A: Its IC50 is 132 nM.

Q: And the IC50 [6]?
A: The IC50 was 70 nM.

Q: What about the IC50 [8] of the same binder?
A: Its IC50 is 15 nM.
